Reference: article PMC7408900, “Cancer-Associated Substitutions in RNA Recognition Motifs of PUF60 and U2AF65 Reveal Residues Required for Correct Folding and 3′ Splice-Site Selection”

Experiments:
PUF60 WT [1] = biological target: T1, PUF60 WT (human, UniProt Q9UHX1 1-559); assay: EMSA; Kd only in figure; Hill 3.0; similar affinity to can probe; EMSA: 40 mM Tris pH 8.0, 5 mM MgCl2, 0.25 ug/uL heparin, 0.01% Triton, 1 mM DTT, room temperature 20 min; 6% native PAGE in 0.5x TBE at 4 C; 15-17 nM biotin-RNA; conditions: protein: recombinant; tags: 2xHis-lipoyl-TEV, removed by TEV; label: 5' biotin; single strand
U2AF65 WT [2] = biological target: T2, U2AF65 WT (human, UniProt P26368 1-475); assay: EMSA; Kd shown only in figure; 0.13-4.2 uM protein; similar affinity to can probe; EMSA: 40 mM Tris pH 8.0, 5 mM MgCl2, 0.25 ug/uL heparin, 0.01% Triton, 1 mM DTT, room temperature 20 min; 6% native PAGE in 0.5x TBE at 4 C; 15-17 nM biotin-RNA; conditions: protein: recombinant; tags: N-terminal GST (pGEX6P, eluted with glutathione); label: 5' biotin; single strand
PUF60 WT [3] = biological target: T1, PUF60 WT; assay: EMSA; Kd only in figure; Hill 2.6; similar affinity to cr probe; EMSA: 40 mM Tris pH 8.0, 5 mM MgCl2, 0.25 ug/uL heparin, 0.01% Triton, 1 mM DTT, room temperature 20 min; 6% native PAGE in 0.5x TBE at 4 C; 15-17 nM biotin-RNA; conditions: protein: recombinant; tags: 2xHis-lipoyl-TEV, removed by TEV; label: 5' biotin; single strand
U2AF65 WT [4] = biological target: T2, U2AF65 WT; assay: EMSA; Kd shown only in figure; 0.13-4.2 uM protein; similar affinity to cr probe; EMSA: 40 mM Tris pH 8.0, 5 mM MgCl2, 0.25 ug/uL heparin, 0.01% Triton, 1 mM DTT, room temperature 20 min; 6% native PAGE in 0.5x TBE at 4 C; 15-17 nM biotin-RNA; conditions: protein: recombinant; tags: N-terminal GST (pGEX6P, eluted with glutathione); label: 5' biotin; single strand
PUF60 WT [5] = biological target: T1, PUF60 WT; assay: EMSA; strong binding; 0.14-1.25 uM protein, 15 nM RNA; EMSA: 40 mM Tris pH 8.0, 5 mM MgCl2, 0.25 ug/uL heparin, 0.01% Triton, 1 mM DTT, room temperature 20 min; 6% native PAGE in 0.5x TBE at 4 C; 15-17 nM biotin-RNA; conditions: protein: recombinant; tags: 2xHis-lipoyl-TEV, removed by TEV; label: 5' biotin; single strand

T1 sequence (Q9UHX1 whole entry): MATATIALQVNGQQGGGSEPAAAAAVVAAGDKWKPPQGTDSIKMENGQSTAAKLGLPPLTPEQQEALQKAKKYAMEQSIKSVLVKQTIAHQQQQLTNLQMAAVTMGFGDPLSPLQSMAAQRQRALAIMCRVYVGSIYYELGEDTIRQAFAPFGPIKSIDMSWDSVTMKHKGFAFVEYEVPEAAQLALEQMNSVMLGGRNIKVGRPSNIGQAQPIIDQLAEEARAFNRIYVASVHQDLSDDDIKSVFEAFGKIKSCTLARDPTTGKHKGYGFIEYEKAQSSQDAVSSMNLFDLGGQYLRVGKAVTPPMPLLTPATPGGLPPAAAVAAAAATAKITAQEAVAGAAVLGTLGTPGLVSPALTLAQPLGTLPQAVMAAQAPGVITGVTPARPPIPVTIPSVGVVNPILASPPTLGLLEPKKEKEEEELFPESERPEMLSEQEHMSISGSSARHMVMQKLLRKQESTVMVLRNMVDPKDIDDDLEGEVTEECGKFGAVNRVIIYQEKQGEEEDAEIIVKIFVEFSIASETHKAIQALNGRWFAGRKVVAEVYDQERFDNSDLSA
T2 sequence (P26368 whole entry, one chain of several): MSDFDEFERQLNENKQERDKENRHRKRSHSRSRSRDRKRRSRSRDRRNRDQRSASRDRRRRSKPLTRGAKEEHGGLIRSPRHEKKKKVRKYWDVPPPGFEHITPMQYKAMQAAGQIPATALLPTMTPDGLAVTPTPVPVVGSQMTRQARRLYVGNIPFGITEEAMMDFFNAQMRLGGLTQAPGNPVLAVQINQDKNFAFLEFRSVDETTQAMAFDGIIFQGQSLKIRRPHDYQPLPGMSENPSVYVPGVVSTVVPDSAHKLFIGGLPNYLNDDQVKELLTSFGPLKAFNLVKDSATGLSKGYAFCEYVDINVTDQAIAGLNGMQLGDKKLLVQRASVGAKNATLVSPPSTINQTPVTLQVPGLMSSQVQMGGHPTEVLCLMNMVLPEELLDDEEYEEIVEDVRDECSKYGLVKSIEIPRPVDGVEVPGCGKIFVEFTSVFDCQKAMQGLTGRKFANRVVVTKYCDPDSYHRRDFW

CUUUUUGUUUCCUUUUUUUUUUAAUUUAAAGG (ssRNA) [UBE2F-cr3'ss-32]
binding result (PUF60 WT [1]): binds | binding result (U2AF65 WT [2]): binds

UUUUUUUGUUUUGUUUUGUGUUUUUUGAUAGA (ssRNA) [UBE2F-can3'ss-32]
binding result (PUF60 WT [3]): binds | binding result (U2AF65 WT [4]): binds

UUCGUGCUGACCUGUCCCUUUUUUUUCCACAGC (ssRNA) [AdML]
binding result (PUF60 WT [5]): binds
